Experimental data reported in PMC4219604, “C-terminal in Sp1-like artificial zinc-finger proteins plays crucial roles in determining their DNA binding affinity”.

Target: 7ZFP Active-A (artificial (Sp1-derived zinc fingers))
Assay: EMSA; EMSA: 25 mM HEPES, 100 mM KCl, 1 mM EDTA, 10 mM MgCl2, 0.1% NP40, 1% glycerol, 1 mM DTT; 30 min on ice; pH not stated
Conditions: protein: recombinant; tags: C-terminal 6xHis; label: biotin; blunt

Sequence of 7ZFP Active-A (artificial (Sp1-derived zinc fingers)) (chain, as listed by the source): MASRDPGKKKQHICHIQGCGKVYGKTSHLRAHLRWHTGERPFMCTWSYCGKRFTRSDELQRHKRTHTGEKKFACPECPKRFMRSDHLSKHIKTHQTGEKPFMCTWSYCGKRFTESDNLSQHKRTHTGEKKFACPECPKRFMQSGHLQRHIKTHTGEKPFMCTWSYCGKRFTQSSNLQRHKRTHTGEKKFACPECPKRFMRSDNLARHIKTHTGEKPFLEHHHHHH

B1: Probe-1 (p16 promoter) (dsDNA)
DNA 1: AAGGTTGTATCGCGGAGGAAGGAAACGGGGCGGGGGCGGATTTCT
DNA 2: AGAAATCCGCCCCCGCCCCGTTTCCTTCCTCCGCGATACAACCTT
- binding result: binds
